Measured values taken from US20220185844A1, “PEPTIDE-DERIVED THERAPEUTICS TARGETING SET8 FOR THE TREATMENT OF CANCER” (NUVOBIO CORPORATION, priority 2019, published 2022).
Several values for one entry are separate records, joined by “and”; a condition that tells them apart may be missing. Equal entries are not always repeated. Where a SMILES comes first, the peptide text is derived from it. Where no end group is shown, it is not given here. [ ]: non-standard residue; d: D form. Nle = CCCC[C@H](N)C(=O)O; Ahx = NCCCCCC(=O)O

T1: Set8 (Homo sapiens, UniProt Q9NQR1)
T1 construct: made in house; host or cells: Escherichia coli BL21 (DE3) RP
T1 sequence (Q9NQR1 191-352 isoform Q9NQR1-2): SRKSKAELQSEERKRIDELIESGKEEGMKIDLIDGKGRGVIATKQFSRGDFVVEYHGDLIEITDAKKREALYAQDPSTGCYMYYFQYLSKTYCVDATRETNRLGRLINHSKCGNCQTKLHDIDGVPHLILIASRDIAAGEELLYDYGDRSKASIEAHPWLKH

T2: Recombinant Set8-His6x, pHIS2 Set8(191-352) (Homo sapiens (Human), UniProt Q9NQR1 191-352)
T2 construct: Purified from E. coli BL21 (DE3) RP; also called SET domain of Set8; SetD8; not shown: His6x tag from the pHIS2 vector
T2 sequence: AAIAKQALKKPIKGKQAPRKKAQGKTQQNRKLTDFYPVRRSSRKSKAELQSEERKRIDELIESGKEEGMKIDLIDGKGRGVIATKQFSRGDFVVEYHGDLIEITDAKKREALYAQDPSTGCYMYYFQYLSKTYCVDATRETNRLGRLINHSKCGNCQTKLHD


Key:
Set8 = biological target: T1, Set8; experiment: In vitro lysine methyltransferase (KMT) activity inhibition assay (Methyltransferase-Glo); format: biochemical
HCT 116 cells [1] = experiment: Flow cytometry of BrdU incorporation (DNA replication); format: cell-based; conditions: HCT 116, 24 hr, 2 and 5 μM
[2] = test system: H4K20 mono-methylation in HCT 116 cells; experiment: Histone H4K20 mono-methylation western blot in treated cells; format: cell-based; conditions: HCT 116, 24 hr post dosing, 0-10 nM
Protocol: The topmost inhibitor, KBL9-TAT, from all the above experiments were tested for histone methylation status in HCT 116 cells. 3×10^6 cells were plated in 10 cm dish and incubated overnight. Cells were then treated with the inhibitors at various concentrations (0, 0.5, 1, 2, 5, 10 nM). Cells (5×10^6 cells/mL), 24 hr of post dosing, were collected in 15 mL falcon tube and centrifuged at 300×g for 10 min. The supernatant was discarded and the cells are washed with iced cold PBS. The cell pellet is flash-frozen in liquid nitrogen and stored at −80° C. Histone isolation is done using standard protocol. To summarize, cells were re-suspended in 1 mL hypotonic lysis buffer (10 mM Tris-HCl pH 8, 1 mM KCl, 1.5 mM MgCl2 and 1 mM DTT) containing protease inhibitor. The cells were transferred to 1.5 mL tube and incubated for 30 min on rotor at 4° C. to promote hypotonic swelling and lysis. The intact nuclei are collected by centrifugation at 10,000×g for 10 min in a cooled tabletop centrifuge. […]
For western blot, of total of […] of histones were separated on 15% SDS-PAGE and transferred overnight at 15V on PVDF membrane. […] Histone proteins were detected by Supersignal™ West Pico PLUS Chemiluminescent substrate (ThermoFisher Scientific) using the Chemidoc XRS+imaging system (BioRad).

HCT 116 cells [3] = experiment: Chemosensitivity to doxorubicin (Resazurin reduction); format: cell-based; conditions: HCT 116 pre-treated with 2 uM for 24 hrs, dox 16 hrs, normalized to TAT-alone
Protocol: Inhibitor-induced sensitivity of HCT 116 cells to a chemotherapeutic agent, namely doxorubicin (dox), was measured using the Resazurin reduction assay. This assay allows to maintain cells viability and, therefore, to monitor cell growth with time. Exponentially growing HCT 116 cells were seeded into 96-well plates at the density of 2.0×10^4 cells/mL and incubated overnight. The media was replaced with fresh media prior to inhibitor treatment. Cells were pre-treated with 2 μM of inhibitor peptide for 24 hr. Peptide was diluted in the cell culture media (DMEM−/−) from 5 mM stock. All the treated cells were compared to the control (TAT peptide alone with equivalent quantity of DMSO) which were considered as 100% viable. One set of wells also prepared with medium only for background subtracting and instrument gain adjustment. Following 24 hr peptide treatment, dilutions of dox were added to cells (0, 0.001, 0.002, 0.01, 0.02, 0.1, 0.2, 1, 2 uM) and incubated for 16 hrs. The experiments were carried out in quadruplicate and expressed as mean+−SD. A 10% resazurin solution (0.15 mg/ml stock dissolved in PBS, filter sterilized and stored protected from light at 4° C.) was then added to each well and incubated for 2 hr. The fluorescence was recorded using a multiwell plate reader (Perkin Elmer) at Ex. 560 nm and Em. 610 nm.

HCT 116 cells [4] = experiment: Cell viability assay (Resazurin reduction); format: cell-based
Protocol: Cell viability was measured using the Resazurin reduction assay which indirectly quantifies living cells through the metabolically active reduction of resazurin to fluorescent resorufin. This assay allows to maintain cells viability and, therefore, to monitor cell growth with time. Exponentially growing HCT 116 cells were seeded into 96-well plates at the density of 2.0×10^4 cells/mL and incubated overnight. The media was replaced with fresh media prior to inhibitor treatment. Cells were treated with 10 μM of inhibitor peptide for 24 hr. All the inhibitors were diluted in the cell culture media (DMEM−/−) from 5 mM stock. All the treated cells were compared to the control (no treatment with equivalent quantity of DMSO) which were considered as 100% viable. One set of wells also prepared with medium only for background subtracting and instrument gain adjustment. The experiments were carried out in triplicate and expressed as mean+−SD. A 10% resazurin solution (0.15 mg/ml stock dissolved in PBS, filter sterilized and stored protected from light at 4° C.) was then added to each well and incubated for 2 hr. The fluorescence was recorded using a multiwell plate reader (Perkin Elmer) at Ex. 560 nm and Em. 610 nm.
Briefly cells were treated with different concentrations of inhibitor for 24 hr ranging from […]. The working dilutions of all the inhibitors were prepared in DMEM−/− media. […]

[5] = biological target: T2, Recombinant Set8-His6x, pHIS2 …; experiment: DSF thermal shift, 125 µM peptide with 20 µM Set8, SYPRO Orange; DMSO control 71.5 ± 1.1
Protocol: Thermal unfolding of target protein was monitored with inhibitor peptide using DSF. Optimal conditions were achieved using buffer containing 150 mM KH₂PO₄ (pH 7.5), 150 mM NaCl, 10 mM MgCl₂. To assess inhibitor-bound target protein (Set8), 20 μL/well (triplicate) reactions are set up into a Low 96-well Clear Multiplate PCR Plate (Bio-Rad). […] Sypro Orange™ at 5× (diluted in the above binding buffer from a stock concentration of 5000×) then added into the enzyme-peptide mixtures. The plate was covered with Microseal ‘B’ Film (Bio-Rad) and was equilibrated at 25° C. for 5 min. Experiments were conducted on a BioRad C1000 Thermal Cycler with CFX96 Real Time system. Heating was conducted using gradients from 25 to 95° C. (increasing 1° C. per minute).

[6] = biological target: T2, Recombinant Set8-His6x, pHIS2 …; experiment: fluorescent polarization, fluorescein-labeled peptide with serially diluted recombinant Set8
Protocol: Recombinant Set8 protein was serially diluted in a 384-well plate, followed by the addition of fluorescein-labeled inhibitor peptide in PBS buffer. The mixtures were incubated in the dark for 30 min prior to fluorescent polarization measurements at room temperature on an EnVision Multilabel Plate Reader (PerkinElmer) with the excitation set at 480 nm and emission at 535 nm. Binding curves were generated by fitting the binding data to a hyperbolic nonlinear regression model using Prism 3.0 (GraphPad software, Inc., San Diego, Calif.), which also produced the corresponding dissociation constants (Kd).

[7] = biological target: T2, Recombinant Set8-His6x, pHIS2 …; experiment: cell-based or functional assay

Molecule | Tm (° C.) [5] [° C.] | further results
THHHKHPGG [KBL9] | – | inhibition of Set8 methyltransferase activity (H4K20 methylation) in dose-response (Set8; 50 nM Set8, 10 μM H4K20 peptide, 10 μM SAM): complete inhibition; in vitro specificity among panel of related methyltransferases (Set8; panel of recombinant Set6, Set7, Set8 enzymes): in vitro specificity towards the inhibition of Set8 activity
C[C@@H](O)[C@H](N)C(=O)N[C@@H](Cc1c[nH]cn1)C(=O)N[C@@H](Cc1c[nH]cn1)C(=O)N[C@@H](Cc1c[nH]cn1)C(=O)N[C@@H](CCCCN)C(=O)N[C@@H](Cc1c[nH]cn1)C(=O)N1CCC[C@H]1C(=O)NCC(=O)NCC(=O)NCCCCCC(=O)NCC(=O)N[C@@H](CCCNC(=N)N)C(=O)N[C@@H](CCCCN)C(=O)N[C@@H](CCCCN)C(=O)N[C@@H](CCCNC(=N)N)C(=O)N[C@@H](CCCNC(=N)N)C(=O)N[C@@H](CCC(N)=O)C(=O)N[C@@H](CCCNC(=N)N)C(=O)N[C@@H](CCCNC(=N)N)C(=O)N[C@@H](CCCNC(=N)N)C(=O)N1CCC[C@H]1C(=O)N1CCC[C@H]1C(=O)N[C@@H](CCC(N)=O)C(=O)O [KBL9-TAT, THHHKHPGG{6-aminohexanoic acid}GRKKRRQRRRPPQ] (H-THHHKHPGG[Ahx]GRKKRRQRRRPPQ-OH; N-terminus and C-terminus assumed) | – | BrdU incorporation (HCT 116 cells [1]): decreased BrdU incorporation in a dose-responsive manner; concentration after which H4K20 histone lysine methylation decreased [2]: at least 2 nM; increase of sensitivity to doxorubicin treatment (HCT 116 cells [3]): 360%; IC50 (HCT 116 cells [4]; 24 hr dose response 1 nM to 20 nM, tested in HCT 116 and HEK 293 cells, read-out: IC50 for loss of cell viability): ~20 nM; loss of cell viability (HCT 116 cells [4]; HCT 116, 10 μM peptide, 24 hr, DMSO control = 100% viable): up to 80%
THHH[Nle]HPGG (also called EP 43) [KBL3] | 85.6 | –
THHH[Nle]HPHQ (also called EP 33) [KBL1] | 86.5 | –
THHH[Nle]HPGA (also called EP 47) [KBL5] | 85 | –
SHHH[Nle]HPHG (also called EP 49) [KBL12] | 78.3 | –
THHH[Nle]HPGE (also called EP 48) [KBL11] | 78.5 | –
THHH[Nle]HPEQ (also called EP 32) [KBL14] | 81.5 | –
SHHH[Nle]HPGT (also called EP 45) [KBL7] | 84.8 | –
THHHKHPGG (also: fluorescein label, position not given here, also called EP18) [fluorescein-labeled KBL9] | – | Kd [6]: 33.5 nM and 33.3 nM
THHHKHPGR (also called EP 21) [KBL4] | 85 | –
SHHHKHPHG (also called EP 24) [KBL10] | 82.8 | –
THHHKHPGA (also called EP 22) [KBL6] | 84.8 | –
THHHKHPEQ (also called EP 7) [KBL13] | 77.6 | –
THHHKHPHK (also called EP 6) [KBL2] | 85.8 | –
THHHKHPHQ (also called EP 8) [KBL15] | 75.5 | –
THHHKHPGQ (also called EP 19) [KBL8] | 84.5 | –
THHHKHPGG[Ahx]GRKKRRQRRRPPQ [KBL9-TAT] | – | IC50, loss of cell viability (resazurin, 24 hr; HCT 116 and HEK 293 cells) [7]: ~20 nM
THHHKHPGG (also called EP 18; EP18) [KBL9] | 83.5 | –
